{
  "source": "patent US20050239706A1",
  "about": "“Modulation of fiaf and the gastrointestinal microbiota as a means to control energy storage in a subject” (Washington University in St. Louis, priority 2003, published 2005)",
  "key": {"[1]": {"target": "Lipoprotein lipase (LPL) (mouse) (UniProt P11152)", "sequence (P11152 28-474 limits assumed)": "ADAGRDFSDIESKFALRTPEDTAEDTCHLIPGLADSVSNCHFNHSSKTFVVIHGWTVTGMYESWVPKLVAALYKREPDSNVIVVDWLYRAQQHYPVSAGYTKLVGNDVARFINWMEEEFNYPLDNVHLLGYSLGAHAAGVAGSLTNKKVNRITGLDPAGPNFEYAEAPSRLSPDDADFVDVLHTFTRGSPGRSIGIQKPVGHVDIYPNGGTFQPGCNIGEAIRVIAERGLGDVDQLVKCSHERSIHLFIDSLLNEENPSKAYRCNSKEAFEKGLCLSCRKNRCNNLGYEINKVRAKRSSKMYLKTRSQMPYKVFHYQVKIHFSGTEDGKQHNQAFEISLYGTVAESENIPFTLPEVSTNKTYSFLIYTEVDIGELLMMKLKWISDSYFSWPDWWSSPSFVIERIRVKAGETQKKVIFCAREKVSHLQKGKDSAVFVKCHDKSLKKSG", "test": "cell-based or functional assay"}, "LPL": {"target": "T1, LPL (Homo sapiens, UniProt P06858)", "T1 sequence (P06858 28-475)": "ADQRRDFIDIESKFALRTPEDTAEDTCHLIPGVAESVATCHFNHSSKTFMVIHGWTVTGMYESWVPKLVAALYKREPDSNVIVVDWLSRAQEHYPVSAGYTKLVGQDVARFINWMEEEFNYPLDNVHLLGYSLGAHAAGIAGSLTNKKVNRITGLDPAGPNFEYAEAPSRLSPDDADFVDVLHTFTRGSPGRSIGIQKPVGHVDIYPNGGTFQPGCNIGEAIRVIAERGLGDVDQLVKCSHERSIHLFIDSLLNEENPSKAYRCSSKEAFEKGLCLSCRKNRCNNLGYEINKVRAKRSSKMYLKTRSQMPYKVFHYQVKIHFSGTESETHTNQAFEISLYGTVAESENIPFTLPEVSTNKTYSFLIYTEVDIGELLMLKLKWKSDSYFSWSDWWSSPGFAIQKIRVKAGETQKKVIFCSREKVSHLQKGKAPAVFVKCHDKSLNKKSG", "details": "in vitro; read-out: IC50 for inhibition of LPL; cited from earlier work"}},
  "data": [
    {"molecule": "Fasting-induced adipose factor (Fiaf) (from UniProt Q9Z1P8 24-410)", "values": [
      {"measurement": "epididymal fat pad LPL activity, GF Fiaf-/- mice versus GF littermates containing the wild-type Fiaf allele", "setting": "[1]", "result": 67, "unit": "% higher"}
    ]},
    {"molecule": "Fiaf: secreted protein, a potent inhibitor of LPL in vitro (protein) QGRPAQPEPPRFASWDEMNLLAHGLLQLGHGLREHVERTRGQLGALERRMAACGNACQGPKGKDAPFKDSEDRVPEGQTPETLQSLQTQLKAQNSKIQQLFQKVAQQQRYLSKQNLRIQNLQSQIDLLAPTHLDNGVDKTSRGKRLPKMTQLIGLTPNATHLHRPPRDCQELFQEGERHSGLFQIQPLGSPPFLVNCEMTSDGGWTVIQRRLNGSVDFNQSWEAYKDGFGDPQGEFWLGLEKMHSITGNRGSQLAVQLQDWDGNAKLLQFPIHLGGEDTAYSLQLTEPTANELGATNVSPNGLSLPFSTWDQDHDLRGDLNCAKSLSGGWWFGTCSHSNLNGQYFHSIPRQRQERKKGIFWKTWKGRYYPLQATTLLIQPMEATAAS", "values": [
      {"measurement": "IC50", "setting": "LPL", "result": 200, "unit": "nM"}
    ]}
  ]
}
